For experiment [1], the target named is T1, human NPR3 (counter target) (human, UniProt P17342 27-481, limits assumed).
T1 construct: Pannings used hNPR3-hFc; also called hNPR3; hNPR3-hFc
T1 sequence (looked up): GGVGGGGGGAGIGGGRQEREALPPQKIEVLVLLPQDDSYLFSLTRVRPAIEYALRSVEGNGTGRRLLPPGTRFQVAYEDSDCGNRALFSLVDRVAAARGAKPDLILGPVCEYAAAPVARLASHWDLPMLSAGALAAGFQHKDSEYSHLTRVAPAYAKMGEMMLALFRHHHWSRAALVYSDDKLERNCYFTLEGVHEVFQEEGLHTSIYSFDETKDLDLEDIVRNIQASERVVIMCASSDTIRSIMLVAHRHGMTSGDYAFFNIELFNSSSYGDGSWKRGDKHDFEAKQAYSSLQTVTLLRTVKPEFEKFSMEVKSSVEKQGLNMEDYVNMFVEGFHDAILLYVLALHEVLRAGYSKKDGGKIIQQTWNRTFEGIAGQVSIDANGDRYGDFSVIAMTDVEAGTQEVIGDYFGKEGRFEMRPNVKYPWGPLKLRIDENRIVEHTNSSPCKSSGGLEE
In words: ELISA, IgG titrated on coated antigen, fluorescence [Cont.]. The protocol: Furthermore, the clones were tested via ELISA for binding to the following antigens: human NPR1, constitutively active human NPR1 mutant (W74R), rat NPR1, human NPR3 (counter target), each in the absence and presence of ANP, and BSA. The clones were also analyzed by flow cytometry for binding to human NPR1 expressing CHO K1 cells in absence and presence of ANP (100 nM) and to parental CHO K1 cells.
(ELISA stands for enzyme-linked immunosorbent assay.)

Experiment [2] concerns the target T2, human NPR3 in the presence of ANP (human, UniProt P17342 27-481; P01160 124-151, limits assumed).
T2 construct: also called hNPR3 + 100 nM ANP
T2 sequence (looked up): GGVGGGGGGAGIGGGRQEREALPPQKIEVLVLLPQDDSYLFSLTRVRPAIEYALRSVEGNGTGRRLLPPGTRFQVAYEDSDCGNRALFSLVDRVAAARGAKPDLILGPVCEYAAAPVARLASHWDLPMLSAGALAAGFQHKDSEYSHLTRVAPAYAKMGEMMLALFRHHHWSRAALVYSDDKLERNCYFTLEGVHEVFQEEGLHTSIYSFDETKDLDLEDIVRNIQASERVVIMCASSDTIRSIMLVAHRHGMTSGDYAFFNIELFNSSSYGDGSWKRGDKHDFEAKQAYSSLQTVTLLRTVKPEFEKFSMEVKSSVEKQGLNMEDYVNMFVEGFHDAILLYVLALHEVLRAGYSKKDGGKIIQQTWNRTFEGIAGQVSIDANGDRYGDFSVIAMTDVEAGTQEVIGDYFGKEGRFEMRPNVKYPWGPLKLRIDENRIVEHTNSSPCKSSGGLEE
T2 sequence (peptide, looked up): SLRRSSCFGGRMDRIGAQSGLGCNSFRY
In words: ELISA, IgG titrated on coated antigen with ANP (250 fold molar excess), fluorescence [Cont.].

Experiment [3] has as its target T3, human NPR1 on CHO-K1 cells in the presence of ANP (human, UniProt P01160 124-151).
T3 construct: also called hNPR1 CHO K1 + 100 nM ANP
T3 sequence: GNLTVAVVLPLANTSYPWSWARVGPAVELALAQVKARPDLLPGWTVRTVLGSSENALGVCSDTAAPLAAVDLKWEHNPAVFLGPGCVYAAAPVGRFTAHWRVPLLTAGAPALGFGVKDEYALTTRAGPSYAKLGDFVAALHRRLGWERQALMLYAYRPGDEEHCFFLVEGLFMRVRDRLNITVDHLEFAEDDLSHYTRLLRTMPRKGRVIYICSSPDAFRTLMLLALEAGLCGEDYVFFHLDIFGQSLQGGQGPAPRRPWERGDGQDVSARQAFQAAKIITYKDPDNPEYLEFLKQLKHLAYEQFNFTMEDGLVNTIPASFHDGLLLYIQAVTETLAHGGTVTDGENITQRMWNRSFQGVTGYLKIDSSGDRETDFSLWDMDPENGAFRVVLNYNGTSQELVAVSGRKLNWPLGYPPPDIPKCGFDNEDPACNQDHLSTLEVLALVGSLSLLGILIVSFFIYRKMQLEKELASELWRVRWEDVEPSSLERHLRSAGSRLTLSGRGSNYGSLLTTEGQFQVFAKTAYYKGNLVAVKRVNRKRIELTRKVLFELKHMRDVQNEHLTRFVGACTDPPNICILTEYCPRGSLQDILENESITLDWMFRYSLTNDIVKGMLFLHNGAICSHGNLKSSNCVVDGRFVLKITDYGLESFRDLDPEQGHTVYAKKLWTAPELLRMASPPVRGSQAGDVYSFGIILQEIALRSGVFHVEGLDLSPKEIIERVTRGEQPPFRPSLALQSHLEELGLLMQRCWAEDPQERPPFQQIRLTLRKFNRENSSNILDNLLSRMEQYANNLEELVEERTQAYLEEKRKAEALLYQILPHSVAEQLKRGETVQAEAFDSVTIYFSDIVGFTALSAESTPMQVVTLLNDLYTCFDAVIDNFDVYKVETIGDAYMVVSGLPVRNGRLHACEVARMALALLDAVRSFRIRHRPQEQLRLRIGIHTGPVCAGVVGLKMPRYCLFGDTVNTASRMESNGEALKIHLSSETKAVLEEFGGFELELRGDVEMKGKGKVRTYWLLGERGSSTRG
T3 sequence (peptide): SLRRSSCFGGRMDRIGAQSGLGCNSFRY
In words: flow cytometry (FL2-H) on hNPR1 CHO-K1 cells with saturating ANP, IgG titrated; control parental CHO-K1 [Cont.), panel XX06]. For orientation: In flow cytometry, cells or beads pass a laser one at a time.

The target of the next experiment is T4, hNPR1-ANP complex (human, UniProt P01160 124-151, limits assumed).
T4 construct: hNPR1 antigen in the presence of ANP; also called hNPR1 + 100 nM ANP
T4 sequence: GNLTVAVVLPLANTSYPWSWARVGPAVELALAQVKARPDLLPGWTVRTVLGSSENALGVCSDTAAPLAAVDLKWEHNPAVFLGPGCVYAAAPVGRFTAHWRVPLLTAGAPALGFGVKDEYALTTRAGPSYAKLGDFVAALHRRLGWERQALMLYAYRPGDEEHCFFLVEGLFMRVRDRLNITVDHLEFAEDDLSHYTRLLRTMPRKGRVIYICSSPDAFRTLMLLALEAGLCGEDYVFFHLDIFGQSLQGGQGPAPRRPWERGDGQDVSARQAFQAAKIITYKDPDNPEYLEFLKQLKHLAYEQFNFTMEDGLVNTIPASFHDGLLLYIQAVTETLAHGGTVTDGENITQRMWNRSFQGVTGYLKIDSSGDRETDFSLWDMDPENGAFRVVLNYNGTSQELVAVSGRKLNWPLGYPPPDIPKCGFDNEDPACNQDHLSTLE
T4 sequence (peptide): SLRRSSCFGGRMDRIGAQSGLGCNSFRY
Kind of experiment: FRET ANP competition assay, IgG titrated on hNPR1 with Cy5-labeled ANP; negative values mean more ANP signal [Cont.), panel XX06]. As to the method: The same 31 IgGs were tested for ANP competition using a Fluorescence Resonance Energy Transfer (FRET)-based assay in which the NPR1-specific antibodies competed with ANP for binding to NPR1. In this FRET based assay (see FIG. 3), Eu-labeled Streptavidin (for measurement of IgGs) or Eu-labeled anti-hFc antibody (for measurement of FabCys) was used as an energy donor, while Cy5-labeled ANP was used as an acceptor (for all measurements). The resulting fluorescent signal was decreased by ANP-competitive antibodies. The assay was performed as follows: antibodies were mixed with NPR1 and incubated for 5 minutes at room temperature. After addition of the Eu-labeled donor and incubation for 30 minutes at room temperature, the Cy5-ANP solution was added. After a further 60-minute incubation, readout was performed using a TECAN Infinite M1000 Pro using an excitation wavelength of 317 nm and an emission wavelength of 665 nm. Percentage of ANP competition was calculated according to the following formulae: […]

For experiment [4], the target named is T1, human NPR3 (counter target). Kind of experiment: ELISA, IgG titrated on coated antigen, fluorescence [Cont.]. This is another data set of the same source.
The target of experiment [5] is T2, human NPR3 in the presence of ANP. In words: ELISA, IgG titrated on coated antigen with ANP (250 fold molar excess), fluorescence [Cont.]. This is another data set of the same source.
For experiment [6], the target named is T3, human NPR1 on CHO-K1 cells in the …. Kind of experiment: flow cytometry (FL2-H) on hNPR1 CHO-K1 cells with saturating ANP, IgG titrated; control parental CHO-K1 [panel XX03].

This note sets out measurements from patent US20240052042A1 (Novartis, published 2024).

Where two headings read alike, the source gives them in different places.

B1: XX06 (IgG format) (antibody, V domains shown)
VH: QVQLLESGGGLVQPGGSLRLSCAASGFTFSSYWMNWVRQAPGKGLEWVSAISSDGSYTYYADSVKGRFTISRDNSKNTLYLQMNSLRAEDTAVYYCARDRYSMIYSYGAGAFDYWGQGTLVTVSS
VL: DIQMTQSPSSLSASVGDRVTITCRASQGISSYLAWYQQKPGKAPKLLIYTASTLQSGVPSRFSGSGSGTDFTLTISSLQPEDFATYYCQQTWRKPRTFGQGTKVEIK
The EC50 (read off the curve) is the concentration that produces a half-maximal response. For the molecule B1, the binding result in experiment [1] and in experiment [2] was “no binding (tested: 200 nM)” each time. Also, the figures for the concentration for a half-maximal effect (EC50 (read off the curve)) (in experiment [3]; with hNPR1-ANP complex) were ~2 nM and ~0.2 nM, respectively.

B2: XX03 (IgG format) (antibody, V domains shown)
VH: EVQLLESGGGLVQPGGSLRLSCAASGFTFSSYWMNWVRQAPGKGLEWVSVIESKGNYIFYADSVKGRFTISRDNSKNTLYLQMNSLRAEDTAVYYCARDRYSMIYSYGAGAFDYWGQGTLVTVSS
VL: DIQMTQSPSSLSASVGDRVTITCRASQGISSYLAWYQQKPGKAPKLLIYTASTLQSGVPSRFSGSGSGTDFTLTISSLQPEDFATYYCMQSYEKPRTFGQGTKVEIK
B2: the binding result in experiment [4] and in experiment [5] was “no binding (tested: 200 nM)” in each case. Further, the “EC50 (read off the curve)” value in experiment [6] was ~1 nM.
